Results published in patent US20250270296A1.
Substitutions are numbered along the chain they refer to.

B1: RBD-chAb-15 (antibody, V domains shown)
VH: EVQLEESGPGLVQPSQSLSITCTVSDFSLTTYGVHWVRQSPGKGLEWLGVIWSGGSTDYNAAFISRLSISKDNSKSQVFFKMNSLQTNDTAIYYCARMGDGYYVGAMDYWGQGTSVTVSS
VL: DIQLTQSPAILSVSPGERVSFSCRASQSIGTSIHWYQQRTNGSPRHLIKYASESISGIPSRFSGSGSGTDFTLTINGVESEDIADYYCQQGHNWPLTFGAGTKLDIK
B2: RBD-chAb-45 (antibody, V domains shown)
VH: EVQLQQSGPELVKPGASVKISCKTSGYTFTEYTIYWVKQSLGKSLEWIGGNNPNNDDTTYKQFFKGKATLTVDKSSSTAYMELRSLTSEDSAVYYCARDGYPYYYALDFWGQGTSVTVSS
VL: DILMTQSQKFMSTSVGDRVSVTCKSSQNVGTNVAWYQQKPGQSPKALIYSASYRYSGVPDHFTGSGSGTDFTLTISNVQSADLAEYFCQQYNNYPWTFGGGTKLDIK
B3: RBD-chAb-51 (antibody, V domains shown)
VH: B2 VH with V18A, I34M, L41H, N51I, D56G, K61N, F63T, Y103F, F109Y, T114I
VL: DIVMTQSQKFMSTSVGDRVSVTCKARQIVGTNVAWYQQKPGQSPKALIYSASYRYSGVPDRFTGSGSGTDFTLTITNVHSEDLAEFFCHQYNSYPWTFGGGTKLDIK
B4: RBD-chAb-1 (antibody, V domains shown)
VH: EVQLQQSGPQLVRPGASMKISCKASGYSFTTYWMHWVKQRPGQGLQWIGMIDPSDSETRLNQKFKDKATLTVDKSSSTAYMQLSSPTSEDSAVYYCARDFDYDRTMDYWGQGTSVTVSS
VL: DIVMSQSPSSLAVSVGEKVTMSCKSSQSLLFSSSQKNYLAWYQQKAGQSPKLLIFWASTRESGVPDRFTGSGSGTDFTLTISSVKAEDLAIYYCKQYYKYPLTFGAGTKLDIK
B5: RBD-chAb-28 (antibody, V domains shown)
VH: QVQLQQPGTELVMPGASVKMSCKASGYTFTDYYLHWMKQRPGQGLEWIGAIDSSDSYTDYNQNFKGKATLTVDESSSTAYMHLSSLTSEDSAVYYCARGKDAYDRRPWFAYWGQGTLVTVSA
VL: DIQMTQTTSSLSASLGDRVTISCSASQGIRYYLNWYQQKPDGTVKLLIYYTSNLHSGVPSRFSGSGSGTDYSLTISNLEPEDIATYYCQQYNKLPYTFGGGTKLDIK

Substrate: S protein of SARS-CoV-2 variant B.1.1.7 (UK, Alpha), full length, on pseudovirus or authentic virus (SARS-CoV-2), P0DTC2
Test: cell-based or functional assay

First: B1
Second: B2
The PRNT50 of the first is 11-fold higher: 58.1 ng/mL for the first, 5.29 ng/mL for the second.

First: B3
Second: B5
The PRNT50 of the first is 9.2-fold lower: 6.39 ng/mL for the first, 58.5 ng/mL for the second.

First: B1
Second: B2
The SARS-CoV2 pseudovirus IC50 of the first is 19-fold higher: 39.7 ng/mL for the first, 2.06 ng/mL for the second.

Compared with B3, B4 is 11-fold higher in SARS-CoV2 pseudovirus IC50: 3.07 ng/mL for the first, 33.5 ng/mL for the second.

B5 showed an SARS-CoV2 pseudovirus IC50 of 11.3 ng/mL.

Substrate: S protein of SARS-CoV-2 variant B.1.351 (SA, Beta), full length, on pseudovirus (SARS-CoV-2), P0DTC2
Test: cell-based or functional assay

Compared with B1, B2 is 11-fold lower in SARS-CoV2 pseudovirus IC50: 30.1 ng/mL for the first, 2.68 ng/mL for the second.

Compared with B3, B4 is 37-fold higher in SARS-CoV2 pseudovirus IC50: 1.26 ng/mL for the first, 46.7 ng/mL for the second.

B5 was tested, and the SARS-CoV2 pseudovirus IC50 was 16.5 ng/mL.

Substrate: S protein of SARS-CoV-2 variant P1 (Brazil, Gamma), full length, on pseudovirus or authentic virus (SARS-CoV-2), P0DTC2
Test: cell-based or functional assay

Going from B1 to B2, the PRNT50 falls from 50.9 ng/mL to 3.26 ng/mL (16-fold).

Going from B3 to B5, the PRNT50 rises from 2.92 ng/mL to 58.3 ng/mL (20-fold).

Compared with B1, B2 is 9.4-fold lower in SARS-CoV2 pseudovirus IC50: 7.18 ng/mL for the first, 0.76 ng/mL for the second.

First: B3
Second: B4
The SARS-CoV2 pseudovirus IC50 of the first is 24-fold lower: 0.7 ng/mL for the first, 17.1 ng/mL for the second.

With B5 the SARS-CoV2 pseudovirus IC50 was 4.18 ng/mL.
